Columns and labels:
[1] = target: T1, OP (Artificial) (UniProt Q9XDM8); details: fluorescence quenching kinetics koff/kon
T1 sequence: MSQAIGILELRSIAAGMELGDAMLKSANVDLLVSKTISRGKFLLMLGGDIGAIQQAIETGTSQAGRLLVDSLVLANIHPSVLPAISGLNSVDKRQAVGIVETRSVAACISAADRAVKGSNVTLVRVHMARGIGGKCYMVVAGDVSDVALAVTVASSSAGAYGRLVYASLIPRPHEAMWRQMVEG

[2] = target: T2, OTR501 (Artificial) (UniProt Q9XDM8); details: fluorescence quenching kinetics koff/kon
T2 sequence: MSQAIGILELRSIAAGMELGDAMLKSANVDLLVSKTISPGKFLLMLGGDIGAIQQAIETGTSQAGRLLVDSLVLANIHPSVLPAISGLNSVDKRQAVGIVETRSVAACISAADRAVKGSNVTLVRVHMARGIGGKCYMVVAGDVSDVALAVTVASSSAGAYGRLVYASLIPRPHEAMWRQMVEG

[3] = target: T3, OTR502 (Artificial) (UniProt Q9XDM8); details: fluorescence quenching kinetics koff/kon
T3 sequence: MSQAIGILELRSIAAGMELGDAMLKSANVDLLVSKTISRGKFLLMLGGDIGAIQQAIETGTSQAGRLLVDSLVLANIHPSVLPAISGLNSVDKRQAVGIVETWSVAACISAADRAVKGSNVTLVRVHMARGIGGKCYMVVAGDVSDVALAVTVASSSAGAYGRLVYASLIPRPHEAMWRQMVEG

[4] = target: T4, OTR503 (Artificial) (UniProt Q9XDM8); details: fluorescence quenching kinetics koff/kon
T4 sequence: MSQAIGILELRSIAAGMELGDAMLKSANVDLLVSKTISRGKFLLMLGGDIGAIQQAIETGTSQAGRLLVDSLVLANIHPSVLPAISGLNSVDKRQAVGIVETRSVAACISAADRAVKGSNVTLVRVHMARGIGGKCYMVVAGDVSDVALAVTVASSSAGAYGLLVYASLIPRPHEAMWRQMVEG

[5] = target: T5, OP (Artificial, UniProt Q9XDM8 SEQ:1-184); test: EMSA; 2:1 ssDNA to capsid; details: tags: C-terminal His6; chain copies: 24 (self-assembled cage)
T5 chain: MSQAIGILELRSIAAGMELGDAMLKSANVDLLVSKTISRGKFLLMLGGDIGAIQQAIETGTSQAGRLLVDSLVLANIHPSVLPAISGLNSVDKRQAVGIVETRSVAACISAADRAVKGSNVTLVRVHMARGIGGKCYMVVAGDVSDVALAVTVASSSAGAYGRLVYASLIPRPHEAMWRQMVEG

[6] = target: T6, O3-33 (Artificial, UniProt Q9XDM8 SEQ:1-184, R11T,R39P,R66E,R103W,R130F,R163L); test: EMSA; 2 equiv. O3-33; details: tags: C-terminal His6, pET29b(+)-O3-33 (David Baker), PDB 3VCD, chain copies: 24 (self-assembled cage)
T6 sequence: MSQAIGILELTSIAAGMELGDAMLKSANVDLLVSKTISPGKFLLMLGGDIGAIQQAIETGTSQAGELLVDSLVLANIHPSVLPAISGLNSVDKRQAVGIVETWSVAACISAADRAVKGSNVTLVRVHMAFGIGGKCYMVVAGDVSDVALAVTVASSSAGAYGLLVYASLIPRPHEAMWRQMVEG

[7] = target: T5, OP; test: EMSA; PBS, room temp; near complete binding at 0.5 equiv. cage, 1.98 guests per cage by SEC; details: tags: C-terminal His6; chain copies: 24 (self-assembled cage)
[8] = target: T7, OP-NoHis6 (Artificial, UniProt Q9XDM8 SEQ:1-188); test: EMSA; 1:1 molar ratio; siRNA encapsulation also by SEC; details: tags: no His6 (GS C-terminus); chain copies: 24 (self-assembled cage, inferred); siRNA duplex with 2-nt 3' DNA overhangs
T7 chain: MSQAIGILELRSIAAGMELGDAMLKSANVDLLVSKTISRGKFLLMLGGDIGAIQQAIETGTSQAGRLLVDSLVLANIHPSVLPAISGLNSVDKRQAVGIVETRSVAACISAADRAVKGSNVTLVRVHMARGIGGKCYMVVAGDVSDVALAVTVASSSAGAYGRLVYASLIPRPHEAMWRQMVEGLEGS

[9] = target: T5, OP; test: EMSA; PBS, room temp; near complete binding at 0.5 equiv. cage, 1.97 guests per cage by SEC; details: tags: C-terminal His6; chain copies: 24 (self-assembled cage); siRNA duplex with 2-nt 3' DNA overhangs
[10] = target: T5, OP; test: EMSA; 1:1 complex in PBS; released over 6 h by 26 uM tRNA at 37 C; details: tags: C-terminal His6; chain copies: 24 (self-assembled cage); label: Atto488 5'
[11] = target: T8, OTR101 (Artificial, UniProt Q9XDM8 SEQ:1-184); test: EMSA; also no binding by fluorescence quenching; details: tags: C-terminal His6; chain copies: 24 (inferred); label: Atto488 5'
T8 chain: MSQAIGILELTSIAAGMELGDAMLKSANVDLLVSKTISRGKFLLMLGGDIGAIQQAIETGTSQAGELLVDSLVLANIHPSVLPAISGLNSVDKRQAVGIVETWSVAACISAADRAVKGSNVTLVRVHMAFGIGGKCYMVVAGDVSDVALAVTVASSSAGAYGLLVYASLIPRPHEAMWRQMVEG

[12] = target: T9, OTR203 (Artificial, UniProt Q9XDM8 SEQ:1-184); test: EMSA; also no binding by fluorescence quenching; details: tags: C-terminal His6; chain copies: 24 (inferred); label: Atto488 5'
T9 chain: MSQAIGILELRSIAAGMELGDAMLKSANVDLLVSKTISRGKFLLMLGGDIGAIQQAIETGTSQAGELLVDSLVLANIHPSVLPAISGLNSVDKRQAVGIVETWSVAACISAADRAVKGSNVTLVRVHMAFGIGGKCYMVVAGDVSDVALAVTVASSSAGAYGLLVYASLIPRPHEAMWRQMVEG

[13] = target: T10, OTR202 (Artificial, UniProt Q9XDM8 SEQ:1-184); test: EMSA; also no binding by fluorescence quenching; details: tags: C-terminal His6; chain copies: 24 (inferred); label: Atto488 5'
T10 chain: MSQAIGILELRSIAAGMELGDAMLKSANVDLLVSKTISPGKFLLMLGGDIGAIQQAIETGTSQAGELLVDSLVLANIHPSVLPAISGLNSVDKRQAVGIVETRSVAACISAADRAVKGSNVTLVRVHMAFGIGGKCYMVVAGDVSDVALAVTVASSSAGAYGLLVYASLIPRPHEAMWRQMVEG

[14] = target: T11, OTR201 (Artificial, UniProt Q9XDM8 SEQ:1-184); test: EMSA; also no binding by fluorescence quenching; details: tags: C-terminal His6; chain copies: 24 (inferred); label: Atto488 5'
T11 chain: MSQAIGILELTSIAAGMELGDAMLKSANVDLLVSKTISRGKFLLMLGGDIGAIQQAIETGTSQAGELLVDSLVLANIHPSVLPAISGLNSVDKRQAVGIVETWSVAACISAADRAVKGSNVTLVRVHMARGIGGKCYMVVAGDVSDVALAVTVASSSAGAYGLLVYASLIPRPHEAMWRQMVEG

[15] = target: T12, OTR502 (Artificial, UniProt Q9XDM8 SEQ:1-184); test: fluorescence quenching kinetics koff/kon, PBS, room temp; details: tags: C-terminal His6; chain copies: 24 (inferred); label: Atto488 5'
T12 chain: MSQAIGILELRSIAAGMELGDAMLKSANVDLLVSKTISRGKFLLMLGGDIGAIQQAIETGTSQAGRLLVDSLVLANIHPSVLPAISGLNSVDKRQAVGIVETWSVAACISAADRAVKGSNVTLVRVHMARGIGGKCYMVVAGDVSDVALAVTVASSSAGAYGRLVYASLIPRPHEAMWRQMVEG

[16] = target: T13, OTR402 (Artificial, UniProt Q9XDM8 SEQ:1-184); test: as above; details: tags: C-terminal His6; chain copies: 24 (inferred); label: Atto488 5'
T13 chain: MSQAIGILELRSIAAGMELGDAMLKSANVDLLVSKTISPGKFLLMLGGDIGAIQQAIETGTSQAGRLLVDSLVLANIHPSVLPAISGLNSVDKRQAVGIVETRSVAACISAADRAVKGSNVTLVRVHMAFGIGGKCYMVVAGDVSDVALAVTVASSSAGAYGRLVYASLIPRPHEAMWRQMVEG

[17] = target: T14, OTR302 (Artificial, UniProt Q9XDM8 SEQ:1-184); test: as above; details: tags: C-terminal His tag; chain copies: 24 (inferred); label: Atto488 5'
T14 chain: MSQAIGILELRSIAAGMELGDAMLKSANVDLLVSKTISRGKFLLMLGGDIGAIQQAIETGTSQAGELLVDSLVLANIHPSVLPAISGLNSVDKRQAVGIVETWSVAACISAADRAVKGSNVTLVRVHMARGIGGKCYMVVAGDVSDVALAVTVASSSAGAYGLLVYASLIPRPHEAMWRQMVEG

[18] = target: T15, OTR501 (Artificial, UniProt Q9XDM8 SEQ:1-184); test: as above; details: tags: C-terminal His6; chain copies: 24 (inferred); label: Atto488 5'
T15 chain: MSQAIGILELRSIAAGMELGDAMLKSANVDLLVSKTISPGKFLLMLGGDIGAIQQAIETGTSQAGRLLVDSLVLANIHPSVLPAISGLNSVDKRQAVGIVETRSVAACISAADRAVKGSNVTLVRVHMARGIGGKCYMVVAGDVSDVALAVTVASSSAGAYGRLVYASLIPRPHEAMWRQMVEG

[19] = target: T16, OTR301 (Artificial, UniProt Q9XDM8 SEQ:1-184); test: as above; details: tags: C-terminal His6; chain copies: 24 (inferred); label: Atto488 5'
T16 chain: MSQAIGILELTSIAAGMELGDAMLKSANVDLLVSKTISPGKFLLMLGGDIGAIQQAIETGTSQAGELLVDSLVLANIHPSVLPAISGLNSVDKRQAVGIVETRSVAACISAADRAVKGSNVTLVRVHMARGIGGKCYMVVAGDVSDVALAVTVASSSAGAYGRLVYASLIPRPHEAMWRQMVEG

[20] = target: T17, OTR401 (Artificial, UniProt Q9XDM8 SEQ:1-184); test: as above; details: tags: C-terminal His6; chain copies: 24 (inferred); label: Atto488 5'
T17 chain: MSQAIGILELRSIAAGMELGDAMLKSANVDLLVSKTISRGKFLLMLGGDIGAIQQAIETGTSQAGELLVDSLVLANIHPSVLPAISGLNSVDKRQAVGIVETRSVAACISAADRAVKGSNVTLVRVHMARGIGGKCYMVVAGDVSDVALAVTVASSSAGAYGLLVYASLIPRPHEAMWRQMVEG

[21] = target: T18, OTR503 (Artificial, UniProt Q9XDM8 SEQ:1-184); test: as above; details: tags: C-terminal His6; chain copies: 24 (inferred); label: Atto488 5'
T18 chain: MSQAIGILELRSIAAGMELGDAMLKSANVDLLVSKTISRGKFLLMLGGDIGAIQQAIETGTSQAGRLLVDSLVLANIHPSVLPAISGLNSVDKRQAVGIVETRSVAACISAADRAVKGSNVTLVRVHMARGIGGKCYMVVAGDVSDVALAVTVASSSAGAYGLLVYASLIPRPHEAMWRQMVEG

[22] = target: T6, O3-33; test: EMSA; PBS, room temp; also no binding by fluorescence quenching; details: tags: C-terminal His6; pET29b(+)-O3-33 (David Baker), PDB 3VCD; chain copies: 24 (self-assembled cage); label: Atto488 5'
[23] = target: T5, OP; test: fluorescence quenching kinetics koff/kon, PBS, room temp; p321 gives (2.4±0.3)e-10; details: tags: C-terminal His6; chain copies: 24 (self-assembled cage); label: Atto488 5'

Molecule: hpDNA (Atto488-hairpin DNA)
- Kd [1]: 1210 pM
- Kd [2]: 390 pM
- Kd [3]: 684 pM
- Kd [4]: 184 pM

Molecule: GAAGGAGATATACATATGAGCCAGGC (ssDNA) [ssDNA9]
- binding result [5]: binds

B1: dsDNA (GFP-g/GFP-p) (dsDNA)
DNA 1: GAACTTCAGGGTCAGCTTGGG
DNA 2: CAAGCTGACCCTGAAGTTCTT
- binding result [6]: no binding
- binding result [7]: binds

Molecule: CGTGGCGAGCAGCAGCGC (ssDNA) [ssDNA1]
- binding result [5]: binds

Molecule: GGTGATGCGATGCTGAAAAGCGC (ssDNA) [ssDNA4]
- binding result [5]: binds

B2: dsRNA (GFP-siRNA-g/GFP-siRNA-p) (dsRNA)
RNA 1: GAACUUCAGGGUCAGCUUGGG
RNA 2: CAAGCUGACCCUGAAGUUCUU
modifications: last two 3' nucleotides deoxy on each strand
- binding result ([6]; siRNA duplex with 2-nt 3' DNA overhangs): no binding
- binding result [8]: binds
- binding result [9]: binds

B3: Atto488-dsDNA (A488-DNA/A488-DNA') (dsDNA)
DNA 1: TTAATTAAAGACTTCAAGCGG
DNA 2: GCTTGAAGTCTTTAATTAATT
- binding result [10]: binds

Molecule: GGTTTCAATCGCCTGCTGAATCGC (ssDNA) [ssDNA7]
- binding result [5]: binds

Molecule: TTAATTAAAGACTTCAAGCGG (ssDNA) [Atto488-ssDNA (A488-DNA)]
- binding result [11]: no binding
- binding result [12]: no binding
- binding result [13]: no binding
- binding result [14]: no binding
- Kd [15]: 289 pM
- Kd [16]: 248 pM
- Kd [17]: 8590 pM
- Kd [18]: 130 pM
- Kd [19]: 2120 pM
- Kd [20]: 16100 pM
- Kd [21]: 609 pM
- binding result [22]: no binding
- Kd [23]: 242 pM

Molecule: CGATTAGCGGTCTGAATAGCGTGG (ssDNA) [ssDNA6]
- binding result [5]: binds

Molecule: CCTGGTGCGTGTGCACATGG (ssDNA) [ssDNA2]
- binding result [5]: binds

Molecule: GCGATTCAGCAGGCGATTGAAACC (ssDNA) [ssDNA5]
- binding result [5]: binds

Molecule: GTGCTCGAGACCTTCCACCATC (ssDNA) [ssDNA3]
- binding result [5]: binds

Molecule: CCACGCTATTCAGACCGCTAATCG (ssDNA) [ssDNA8]
- binding result [5]: binds
